Data as given in patent publication US20110098217A1 (INDIANA UNIVERSITY RESEARCH AND TECHNOLOGY, published 2011).
Read-outs that look alike come from different tables or passages of the source. Numbered stars: 1 amine (or outer) side, 2 acyl side, 3 side chain; on linkers, the order of the positions; unused ones are H or OH. Bridge positions count the residues as written; N and C are the ends. Square brackets hold non-standard residues; d marks the D form. Primed or numbered codes have the meaning given here. Side chains are listed from the residue outwards. Ends that are not written are not given here. CSA‑2 = Cys(S-CH2CH2COOH), S-(2-carboxyethyl)-L-cysteine, O=C([C@H](CSCCC(=O)[*:3])N[*:1])[*:2]; CSA‑1 = Cys(S-CH2COOH), S-carboxymethyl-L-cysteine, O=C([C@H](CSCC(=O)[*:3])N[*:1])[*:2]; Glu = Glu spacer between Lys side chain and the C16 fatty acid (EC16FA); PEG 20 kDa″ = 20 kDa polyethylene glycol (PEG); PEG 20 kDa = 20 kDa polyethylene glycol; PhLac = O=C(O)[C@@H](O)Cc1ccccc1; Aad = N[C@@H](CCCC(=O)O)C(=O)O; Mpa = O=C(O)CCS

What was measured:
human glucagon receptor [1] = molecular target: T1, human glucagon receptor (human, UniProt P47871 26-477); test: cell-based or functional assay
T1 sequence (P47871 26-477): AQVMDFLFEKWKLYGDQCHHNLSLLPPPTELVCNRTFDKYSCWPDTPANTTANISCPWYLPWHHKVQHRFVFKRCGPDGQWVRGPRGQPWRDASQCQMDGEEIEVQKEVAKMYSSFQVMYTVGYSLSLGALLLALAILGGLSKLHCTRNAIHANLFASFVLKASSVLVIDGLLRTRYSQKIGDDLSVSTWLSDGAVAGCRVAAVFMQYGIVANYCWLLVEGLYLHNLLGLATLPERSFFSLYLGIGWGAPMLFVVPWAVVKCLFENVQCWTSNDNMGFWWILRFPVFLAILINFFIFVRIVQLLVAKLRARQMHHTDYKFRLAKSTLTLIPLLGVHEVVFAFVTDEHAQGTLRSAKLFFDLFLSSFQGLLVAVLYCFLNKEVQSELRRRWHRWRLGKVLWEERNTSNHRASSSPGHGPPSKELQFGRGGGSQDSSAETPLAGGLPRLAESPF

human GLP-1 receptor [2] = molecular target: T2, human GLP-1 receptor (human, UniProt P43220 24-463); test: cell-based or functional assay
human glucagon receptor [3] = molecular target: T1, human glucagon receptor; test: cell-based or functional assay; remark: listed apart in the source
human GLP-1 receptor [4] = molecular target: T2, human GLP-1 receptor; test: cell-based or functional assay; remark: listed apart in the source
human glucagon receptor [5] = molecular target: T1, human glucagon receptor; test: cell-based or functional assay; remark: listed apart in the source
human GLP-1 receptor [6] = molecular target: T2, human GLP-1 receptor; test: cell-based or functional assay; remark: listed apart in the source
human glucagon receptor [7] = molecular target: T1, human glucagon receptor; test: SPA competition vs 125I-glucagon, receptor membranes
human glucagon receptor [8] = molecular target: T1, human glucagon receptor; test: as above; remark: listed apart in the source
human glucagon receptor [9] = molecular target: T1, human glucagon receptor; test: cell-based or functional assay; remark: listed apart in the source
human glucagon receptor [10] = molecular target: T1, human glucagon receptor; test: cell-based or functional assay; remark: listed apart in the source

Binder	Glucagon antagonism IC50 (inhibit 0.4 nM glucagon) (human glucagon receptor [1]) [nM]	GLP-1 agonism EC50 (human GLP-1 receptor [2]) [nM]	Glucagon antagonism IC50 (inhibit 0.2-0.8 nM glucagon) (human glucagon receptor [5]) [nM]	GLP-1 agonism EC50 (human GLP-1 receptor [6]) [nM]	IC50 (human glucagon receptor [7]) [nM]	further results
[PhLac]TSDYSKYLDERRAK([Glu-C16 fatty acid])DFVQWLMDT-NH2 [[PLA6, E16, K20(EC16FA), D28]G(6-29)]	576	1290	–	–	–	–
SQGTFTSEYSKYLDERRAKDFVQWLMDT-NH2 (lactam 15-19) [[S2Q3, E9, E16K20(Lactam), D28] G(2-29)]	–	–	–	–	–	Glucagon antagonism IC50 (inhibit 0.8 nM glucagon) (human glucagon receptor [3]): 23.4 nM; GLP-1 agonism EC50 (human GLP-1 receptor [4]): 284 nM
[PhLac]TSDYSKYLDERRAKDFVQWLMDK([Glu-C16 fatty acid])-NH2 (lactam 11-15) [[PLA6, E16K20(lactam), D28, K29(EC16FA)]G(6-29)]	386	1410	–	–	–	–
[PhLac]TSDYSKYLDERRAQDFVC(PEG 20 kDa)WLMDT-NH2 (lactam 7-11) [[PLA6, K12E16(lactam), C24(20 kDa), D28]G(6-29)]	–	–	628	550 to 753	–	–
FTS[Aad]YSKYLDSRRAQDFVQWLMNT-NH2 (N-terminus assumed; SMILES CSCC[C@H](NC(=O)[C@H](CC(C)C)NC(=O)[C@H](Cc1c[nH]c2ccccc12)NC(=O)[C@H](CCC(N)=O)NC(=O)[C@@H](NC(=O)[C@H](Cc1ccccc1)NC(=O)[C@H](CC(=O)O)NC(=O)[C@H](CCC(N)=O)NC(=O)[C@H](C)NC(=O)[C@H](CCCNC(=N)N)NC(=O)[C@H](CCCNC(=N)N)NC(=O)[C@H](CO)NC(=O)[C@H](CC(=O)O)NC(=O)[C@H](CC(C)C)NC(=O)[C@H](Cc1ccc(O)cc1)NC(=O)[C@H](CCCCN)NC(=O)[C@H](CO)NC(=O)[C@H](Cc1ccc(O)cc1)NC(=O)[C@H](CCCC(=O)O)NC(=O)[C@H](CO)NC(=O)[C@@H](NC(=O)[C@@H](N)Cc1ccccc1)[C@@H](C)O)C(C)C)C(=O)N[C@@H](CC(N)=O)C(=O)N[C@H](C(N)=O)[C@@H](C)O, also called [hE^9]Glucagon(aa6-29)-NH2; peptide no; 12) [[hGlu^9]Glucagon(aa6-29)-NH2]	–	–	–	–	163	IC50 (human glucagon receptor [8]): 163 nM; cAMP (I/A)50 inhibition index (human glucagon receptor [9]): 2360; cAMP pA2 (human glucagon receptor [9]): 6.27; cAMP IC50 (human glucagon receptor [10]): 472 nM; cAMP pA2 (human glucagon receptor [10]): 6.27
FTSDYSKYLDSRRAQDFVQWLMNT-NH2 (also called peptide no; 15) [Glucagon(aa6-29)-NH2]	–	–	–	–	1890	IC50 (human glucagon receptor [8]): 1670 nM; cAMP (I/A)50 inhibition index (human glucagon receptor [9]): 1730; cAMP pA2 (human glucagon receptor [9]): 6.94; cAMP IC50 (human glucagon receptor [10]): 346 nM; cAMP pA2 (human glucagon receptor [10]): 6.94
FTSKYSKYLDSRRAQDFVQWLMNT-NH2 (also called [K^9]Glucagon(aa6-29)-NH2; peptide no; 16) [[Lys^9]Glucagon(aa6-29)-NH2]	–	–	–	–	5780	IC50 (human glucagon receptor [8]): 3240 nM; cAMP (I/A)50 inhibition index (human glucagon receptor [9]): 1990; cAMP pA2 (human glucagon receptor [9]): 6.58; cAMP IC50 (human glucagon receptor [10]): 398 nM; cAMP pA2 (human glucagon receptor [10]): 6.58
[PhLac]TSDK([Glu-C16 fatty acid])SKYLDERRAKDFVQWLMDT-NH2 (lactam 11-15) [[PLA6, K10(EC16FA), E16K20(lactam),D28]G(6-29)]	31.1	129	–	–	–	–
[PhLac]TSDK([Glu-C16 fatty acid])SKYLDERRAKDFVQWLMDT-NH2 [[PLA6, K10(EC16FA), E16, K20,D28]G(6-29)]	222	105	–	–	–	–
FTS[CSA‑2]YSKYLDSRRAQDFVQWLMNT-NH2 (N-terminus assumed; SMILES CSCC[C@H](NC(=O)[C@H](CC(C)C)NC(=O)[C@H](Cc1c[nH]c2ccccc12)NC(=O)[C@H](CCC(N)=O)NC(=O)[C@@H](NC(=O)[C@H](Cc1ccccc1)NC(=O)[C@H](CC(=O)O)NC(=O)[C@H](CCC(N)=O)NC(=O)[C@H](C)NC(=O)[C@H](CCCNC(=N)N)NC(=O)[C@H](CCCNC(=N)N)NC(=O)[C@H](CO)NC(=O)[C@H](CC(=O)O)NC(=O)[C@H](CC(C)C)NC(=O)[C@H](Cc1ccc(O)cc1)NC(=O)[C@H](CCCCN)NC(=O)[C@H](CO)NC(=O)[C@H](Cc1ccc(O)cc1)NC(=O)[C@H](CSCCC(=O)O)NC(=O)[C@H](CO)NC(=O)[C@@H](NC(=O)[C@@H](N)Cc1ccccc1)[C@@H](C)O)C(C)C)C(=O)N[C@@H](CC(N)=O)C(=O)N[C@H](C(N)=O)[C@@H](C)O, also called [C^9(SCH2CH2COOH)]Glucagon (aa6-29)-NH2; peptide no; 14) [[(CSA-2)^9]Glucagon(aa6-29)-NH2]	–	–	–	–	146	IC50 (human glucagon receptor [8]): 146 nM; cAMP (I/A)50 inhibition index (human glucagon receptor [9]): 580; cAMP pA2 (human glucagon receptor [9]): 6.64; cAMP IC50 (human glucagon receptor [10]): 116 nM; cAMP pA2 (human glucagon receptor [10]): 6.64
[PhLac]TSDYSKYLDERRAKDFVK([Mpa-PEG 20 kDa″])WLMDT-NH2 (lactam 11-15) [[PLA6, E16K20(Lactam), K24(COCH2CH2S-20 kDa)] G(6-29)]	–	–	300 to 400	16 to 20	–	–
[PhLac]TSDYSKYLDERRAKDFVK([3‑aminoprop‑1‑ynyl‑benzoic acid-Mpa-PEG 20 kDa])WLMDT-NH2 (lactam 11-15) [[PLA6,E16K20(Lactam), K24(rigid-S-20 kDa)]G(6-29)]	–	–	393 to 620	1360 to 2680	–	–
[PhLac]TSDYSKYLDERRAKDFVQWLMDTGPSSGAPPPSC(PEG 20 kDa″)-NH2 (lactam 11-15) [[PLA6, E16K20(Lactam), D28,CEX-C40(20 kDa)]G(6-40)]	–	–	350 to 500	75 to 100	–	–
FTS[CSA‑1]YSKYLDSRRAQDFVQWLMNT-NH2 (N-terminus assumed; SMILES CSCC[C@H](NC(=O)[C@H](CC(C)C)NC(=O)[C@H](Cc1c[nH]c2ccccc12)NC(=O)[C@H](CCC(N)=O)NC(=O)[C@@H](NC(=O)[C@H](Cc1ccccc1)NC(=O)[C@H](CC(=O)O)NC(=O)[C@H](CCC(N)=O)NC(=O)[C@H](C)NC(=O)[C@H](CCCNC(=N)N)NC(=O)[C@H](CCCNC(=N)N)NC(=O)[C@H](CO)NC(=O)[C@H](CC(=O)O)NC(=O)[C@H](CC(C)C)NC(=O)[C@H](Cc1ccc(O)cc1)NC(=O)[C@H](CCCCN)NC(=O)[C@H](CO)NC(=O)[C@H](Cc1ccc(O)cc1)NC(=O)[C@H](CSCC(=O)O)NC(=O)[C@H](CO)NC(=O)[C@@H](NC(=O)[C@@H](N)Cc1ccccc1)[C@@H](C)O)C(C)C)C(=O)N[C@@H](CC(N)=O)C(=O)N[C@H](C(N)=O)[C@@H](C)O, also called [C^9(SCH2COOH)]Glucagon(aa6-29)-NH2; peptide no; 13) [[(CSA-1)^9]Glucagon(aa6-29)-NH2]	–	–	–	–	107	IC50 (human glucagon receptor [8]): 107 nM; cAMP (I/A)50 inhibition index (human glucagon receptor [9]): 506; cAMP pA2 (human glucagon receptor [9]): 6.68; cAMP IC50 (human glucagon receptor [10]): 101 nM; cAMP pA2 (human glucagon receptor [10]): 6.68
[PhLac]TSEYSKYLDSRRAQDFVQWLMNT-NH2 (lactam 4-7) [[PLA6, E9K12(Lactam)] G(6-29)]	–	–	–	–	–	Glucagon antagonism IC50 (inhibit 0.8 nM glucagon) (human glucagon receptor [3]): 72.5 nM; GLP-1 agonism EC50 (human GLP-1 receptor [4]): 144 nM
LTFTSEYSKYLDSRRAQDFVQWLMNT-NH2 (also called peptide no) [[Leu^4, Glu^9]Glucagon(aa4-29)-NH2]	–	–	–	–	36.4	–
[PhLac]TSDYSKYLDERRAKDFVQWLMDGGPSSGAPPPSC(PEG 20 kDa″)-NH2 (lactam 11-15) [[PLA6, E16K20(Lactam),D28,G29, CEX-C40(20 kDa)]G(6-40)]	–	–	335	180	–	–
[PhLac]TSDYSKYLDERRAKDFVK([Glu-C16 fatty acid])WLMDT-NH2 (lactam 11-15) [[PLA6, E16K20(lactam), K24(EC16FA), D28]G(6-29)]	372	293	–	–	–	–
[PhLac](C16 fatty acid)TSDYSKYLDERRAKDFVQWLMDT-NH2 (lactam 11-15) [[C16FA-O-PLA6, E16K20(lactam),D28]G(6-29)]	338	45.7	–	–	–	–
[PhLac]TSDYSKYLDERRAKDFVQWLMDTGPGPGPGPGPC(PEG 20 kDa″)-NH2 (lactam 11-15) [[PLA6, E16K20(Lactam),D28,GP-C40(20 kDa)]G(6-40)]	–	–	423	43.6	–	–
